In article PMC10375638:
Read-outs that look alike come from different tables or passages of the source.

How the values were obtained:
[1] = biological target: AP1-mV reporter in Arabidopsis flowers (Arabidopsis thaliana) (UniProt P35631); assay: FRET or BRET; FLIM-FRET (OPA) in young flowers of stable A. thaliana lines; donor AP1-mV, acceptor AP1-mCh or PI-mCh, endogenous promoters, F1 plants; only nuclei with donor and acceptor
[2] = biological target: APETALA3 (AP3) fused to mVenus, expressed in N. benthamiana (Arabidopsis thaliana) (UniProt P35632); assay: FRET or BRET; FLIM-FRET with one pattern analysis (OPA) in nuclei of transiently expressing N. benthamiana leaf epidermis cells; donor mVenus fusion, acceptor mCherry fusion; BINDING = relative amplitude of the FRET fraction; nucleoli excluded; FRET efficiency only for nuclei with BINDING above 10%
Chain of APETALA3 (AP3) fused to mVenus, expressed in N. benthamiana (Arabidopsis thaliana) (P35632 whole entry, the tested form may be a part): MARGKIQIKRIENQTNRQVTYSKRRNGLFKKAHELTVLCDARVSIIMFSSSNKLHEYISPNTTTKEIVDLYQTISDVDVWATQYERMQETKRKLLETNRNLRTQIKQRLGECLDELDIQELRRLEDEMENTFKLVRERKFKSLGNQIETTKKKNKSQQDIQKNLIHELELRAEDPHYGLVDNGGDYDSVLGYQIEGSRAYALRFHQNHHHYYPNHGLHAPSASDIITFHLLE

[3] = biological target: … (PI) fused to mVenus, expressed in N. benthamiana (Arabidopsis thaliana) (UniProt P48007); assay: as above
Chain of … (PI) fused to mVenus, expressed in N. benthamiana (Arabidopsis thaliana) (P48007 whole entry, the tested form may be a part): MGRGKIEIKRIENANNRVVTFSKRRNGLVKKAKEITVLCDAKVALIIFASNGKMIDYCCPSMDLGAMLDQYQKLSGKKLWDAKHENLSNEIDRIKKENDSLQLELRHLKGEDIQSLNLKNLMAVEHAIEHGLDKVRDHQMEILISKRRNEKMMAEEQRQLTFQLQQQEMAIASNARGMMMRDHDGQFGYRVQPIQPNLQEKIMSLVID

[4] = biological target: APETALA1 (AP1) fused to mVenus, expressed in N. benthamiana (Arabidopsis thaliana) (UniProt P35631); assay: as above
Chain of APETALA1 (AP1) fused to mVenus, expressed in N. benthamiana (Arabidopsis thaliana) (P35631 whole entry, the tested form may be a part): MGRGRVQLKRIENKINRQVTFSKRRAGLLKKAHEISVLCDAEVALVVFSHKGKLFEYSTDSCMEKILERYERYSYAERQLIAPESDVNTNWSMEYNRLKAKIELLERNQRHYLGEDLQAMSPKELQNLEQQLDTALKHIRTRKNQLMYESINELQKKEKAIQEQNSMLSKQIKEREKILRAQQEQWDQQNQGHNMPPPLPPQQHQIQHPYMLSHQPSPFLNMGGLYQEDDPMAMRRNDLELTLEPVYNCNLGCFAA

[5] = biological target: APETALA1 (AP1) fused to mVenus, expressed in N. benthamiana (Arabidopsis thaliana) (UniProt P35631); assay: as above; remark: listed apart in the source
[6] = biological target: APETALA1 (AP1) fused to mVenus, expressed in N. benthamiana (Arabidopsis thaliana) (UniProt P35631); assay: as above; remark: listed apart in the source

Chain of APETALA1 (AP1) fused to mVenus, expressed in N. benthamiana, P35631 1-256 (natural protein; other documents disagree on this pair) (P35631 whole entry, the tested form may be a part): as above
Chain of AP1-mV reporter in Arabidopsis flowers, P35631 1-256 (natural protein; other documents disagree on this pair) (P35631 whole entry): as the sequence (P35631 whole entry, the tested form may be a part) above

Substance	BINDING [2] [%]	FRET efficiency [2] [%]	BINDING [3] [%]	FRET efficiency [3] [%]	BINDING [4] [%]	FRET efficiency [4] [%]	other results
AP1-mV reporter in Arabidopsis flowers, P35631 1-256 (natural protein; other documents disagree on this pair)	–	–	–	–	–	–	BINDING [1]: 8.59%; FRET efficiency [1]: 56.7%
APETALA1 (AP1) fused to mCherry, expressed in N. benthamiana (from UniProt P35631 1-256) (natural protein)	16.5	43.6	16.1	41.5	–	–	–
…3 (SEP3) fused to mCherry, expressed in N. benthamiana (from UniProt O22456 1-251) (natural protein)	–	–	–	–	36.1	42.6	–
… (PI) fused to mCherry, expressed in N. benthamiana (from UniProt P48007 1-208) (natural protein)	35.2	38	–	–	–	–	–

Now from value to substance, other results behind:

BINDING [2] [%]	FRET efficiency [2] [%]	BINDING [3] [%]	FRET efficiency [3] [%]	BINDING [4] [%]	FRET efficiency [4] [%]	Substance	other results
–	–	–	–	29.9	39	APETALA1 (AP1) fused to mVenus, expressed in N. benthamiana, P35631 1-256 (natural protein; other documents disagree on this pair)	BINDING [5]: 19.2%; FRET efficiency [6]: 40%
–	–	36	38	–	–	APETALA3 (AP3) fused to mCherry, expressed in N. benthamiana (from UniProt P35632 1-232) (natural protein)	–
